In patent publication US20240002497A1 (Merck Sharp & Dohme, published 2024):
Substitutions are numbered along the chain they refer to. In names and notes the source's numbering stands. One block for each binder: values may come before it.

Experiments:
[1] = molecular target: T1, huNav1.7α + β1-β2-β3 (human Nav1.7α co-expressed with human Navβ1, Navβ2 and Navβ3 on cells) (human); assay: binding FACS, CHO FlpIn cells
T1 construct: also called huNav1.7-beta1-beta2-beta3; CHO FlpIn huNav1.7α + β1-β2-β3
Description: (§1) Binding of the ISVDs to cell-expressed Nav1.7α was detected via murine anti-Flag (Sigma, catalog #F1804). Briefly, cells were resuspended in FACS buffer (PBS, 10% FBS, NaN₃) and transferred to a 96-well V-bottom plate at 1×10^5 cells/well. Purified FLAG3-tagged ISVD was diluted in FACS buffer and added to the cells for 30 minutes at 4° C. […] Prior to the read-out, the samples were resuspended in 1 μg/mL propidium iodide (Sigma, catalog #P4170) to exclude dead cells. Between each step, the cells were centrifuged for 5 minutes at 200 grams and washed with 100 μL/well FACS buffer.

[2] = molecular target: T2, rhNav1.7α + β1-β2-β3 (rhesus Nav1.7α co-expressed with Navβ1, Navβ2 and Navβ3 on cells) (rhesus monkey (α subunit); β subunits …); assay: binding FACS, CHO FlpIn cells
T2 construct: also called rhNav1.7-beta1-beta2-beta3; CHO FlpIn rhNav1.7α + β1-β2-β3
Description: as §1

- Bmax [1]: 99%
- EC50 [1]: 30 nM
- Bmax [2]: 100%
- EC50 [2]: 21 nM
B1: F010302320 (VHH)
VHH: EVQLVESGGGVVQPGGSLRLSCAASGPVFNINRMAWYRQAPGKQRELVAYVTPTGDISYADSVKGRFTISRDASKRVYLQMNSLRPEDTALYYCRALLQPDSYSNTRTYWGQGTLVTVSS
notes: also called F0103387G04(L11V, A12V, K33R, R39Q, S50Y, S56D, T60A, G73A, W78V, S79Y, T83R, V89L, N93R)

- Bmax [1]: 94%
- EC50 [1]: 7.6 nM
- Bmax [2]: 44%
- EC50 [2]: 19 nM
B2: F010302329 (VHH)
VHH: B1 VHH with A73G, S102R
notes: also called F0103387G04(L11V, A12V, K33R, R39Q, S50Y, S56D, T60A, W78V, S79Y, T83R, V89L, N93R, S100R)

- Bmax [1]: 100%
- EC50 [1]: 38 nM
- Bmax [2]: 96%
- EC50 [2]: 34 nM
B3: F010302313 (VHH)
VHH: B1 VHH with N105I
notes: also called F0103387G04(L11V, A12V, K33R, R39Q, S50Y, S56D, T60A, G73A, W78V, S79Y, T83R, V89L, N93R, N100cI)

- Bmax [1]: 100%
- EC50 [1]: 17 nM
- Bmax [2]: 100%
- EC50 [2]: 8 nM
B4: F010301656 (VHH)
VHH: B1 VHH with V11L, V12A, Q39R, A60T, A73G, V77W, Y78S, R85T, L91V
notes: also called F0103387G04(K33R, S50Y, S56D, N93R)

- Bmax [1]: 100%
- EC50 [1]: 38 nM
- Bmax [2]: 100%
- EC50 [2]: 18 nM
B5: F010301866 (VHH)
VHH: B1 VHH with A73G, R76N
notes: also called F0103387G04(L11V, A12V, K33R, R39Q, S50Y, S56D, T60A, R76N, W78V, S79Y, T83R, V89L, N93R)

- Bmax [1]: 100%
- EC50 [1]: 14 nM
- Bmax [2]: 100%
- EC50 [2]: 7.6 nM
B6: F010301841 (VHH)
VHH: B1 VHH with A60T, A73G, V77W, Y78S
notes: also called F0103387G04(L11V, A12V, K33R, R39Q, S50Y, S56D, T83R, V89L, N93R)

- Bmax [1]: 96%
- EC50 [1]: 13 nM
- Bmax [2]: 99%
- EC50 [2]: 8.7 nM
B7: F010302325 (VHH)
VHH: B1 VHH with A73R
notes: also called F0103387G04(L11V, A12V, K33R, R39Q, S50Y, S56D, T60A, G73R, W78V, S79Y, T83R, V89L, N93R)

- Bmax [1]: 100%
- EC50 [1]: 17 nM
- Bmax [2]: 100%
- EC50 [2]: 8 nM
B8: F010301845 (VHH)
VHH: B1 VHH with A60T, A73G, Y78S
notes: also called F0103387G04(L11V, A12V, K33R, R39Q, S50Y, S56D, W78V, T83R, V89L, N93R)

- Bmax [1]: 93%
- EC50 [1]: 10 nM
- Bmax [2]: 23%
- EC50 [2]: 200 nM
B9: F010302330 (VHH)
VHH: B1 VHH with S102R
notes: also called F0103387G04(L11V, A12V, K33R, R39Q, S50Y, S56D, T60A, G73A, W78V, S79Y, T83R, V89L, N93R, S100R)

- Bmax [1]: 89%
- EC50 [1]: 6.2 nM
- Bmax [2]: 32%
- EC50 [2]: 18 nM
B10: F010302326 (VHH)
VHH: B1 VHH with A73G, D101R
notes: also called F0103387G04(L11V, A12V, K33R, R39Q, S50Y, S56D, T60A, W78V, S79Y, T83R, V89L, N93R, D99R)

- Bmax [1]: 91%
- EC50 [1]: 6.8 nM
- Bmax [2]: 13%
- EC50 [2]: 19 nM
B11: F010302317 (VHH)
VHH: B1 VHH with A73R, D101R, N105I
notes: also called F0103387G04(L11V, A12V, K33R, R39Q, S50Y, S56D, T60A, G73R, W78V, S79Y, T83R, V89L, N93R, D99R, N100cI)-FLAG3-HIS6

- Bmax [1]: 90%
- EC50 [1]: 6 nM
- Bmax [2]: 38%
- EC50 [2]: 24 nM
B12: F010302331 (VHH)
VHH: B1 VHH with A73R, S102R
notes: also called F0103387G04(L11V, A12V, K33R, R39Q, S50Y, S56D, T60A, G73R, W78V, S79Y, T83R, V89L, N93R, S100R)

- Bmax [1]: 100%
- EC50 [1]: 23 nM
- Bmax [2]: 100%
- EC50 [2]: 11 nM
B13: F010301844 (VHH)
VHH: B1 VHH with A60T, A73G, R76N, V77W, Y78S
notes: also called F0103387G04(L11V, A12V, K33R, R39Q, S50Y, S56D, R76N, T83R, V89L, N93R)

- Bmax [1]: 100%
- EC50 [1]: 18 nM
- Bmax [2]: 100%
- EC50 [2]: 9.3 nM
B14: F010301843 (VHH)
VHH: B1 VHH with A60T, A73N, V77W, Y78S
notes: also called F0103387G04(L11V, A12V, K33R, R39Q, S50Y, S56D, G73N, T83R, V89L, N93R)

- Bmax [1]: 100%
- EC50 [1]: 16 nM
- Bmax [2]: 98%
- EC50 [2]: 14 nM
B15: F010302314 (VHH)
VHH: B1 VHH with A73R, N105I
notes: also called F0103387G04(L11V, A12V, K33R, R39Q, S50Y, S56D, T60A, G73R, W78V, S79Y, T83R, V89L, N93R, N100cI)

- Bmax [1]: 87%
- EC50 [1]: 7 nM
- Bmax [2]: 7%
- EC50 [2]: 93 nM
B16: F010302327 (VHH)
VHH: B1 VHH with D101R
notes: also called F0103387G04(L11V, A12V, K33R, R39Q, S50Y, S56D, T60A, G73A, W78V, S79Y, T83R, V89L, N93R, D99R)

- Bmax [1]: 100%
- EC50 [1]: 7.2 nM
- Bmax [2]: 23%
- EC50 [2]: 39 nM
B17: F010302315 (VHH)
VHH: B1 VHH with A73G, D101R, N105I
notes: also called F0103387G04(L11V, A12V, K33R, R39Q, S50Y, S56D, T60A, W78V, S79Y, T83R, V89L, N93R, D99R, N100cI)

- Bmax [1]: 100%
- EC50 [1]: 67 nM
- Bmax [2]: 100%
- EC50 [2]: 29 nM
B18: F010301847 (VHH)
VHH: B1 VHH with A73N, R76N
notes: also called F0103387G04(L11V, A12V, K33R, R39Q, S50Y, S56D, T60A, G73N, R76N, W78V, S79Y, T83R, V89L, N93R)

- Bmax [1]: 100%
- EC50 [1]: 9 nM
- Bmax [2]: 100%
- EC50 [2]: 7.3 nM
B19: F010302370 (VHH)
VHH: B1 VHH with A73R, D101S, N105I
notes: also called F0103387G04(L11V, A12V, K33R, R39Q, S50Y, S56D, T60A, G73R, W78V, S79Y, T83R, V89L, N93R, D99S, N100cI)
